Tests used:
Test in all cases: IP/MS, LZTR1 R810W-FLAG, U87
SLC4A2 = target: T1, SLC4A2 (human, UniProt P04920 1-1241, limits assumed)
T1 sequence (looked up): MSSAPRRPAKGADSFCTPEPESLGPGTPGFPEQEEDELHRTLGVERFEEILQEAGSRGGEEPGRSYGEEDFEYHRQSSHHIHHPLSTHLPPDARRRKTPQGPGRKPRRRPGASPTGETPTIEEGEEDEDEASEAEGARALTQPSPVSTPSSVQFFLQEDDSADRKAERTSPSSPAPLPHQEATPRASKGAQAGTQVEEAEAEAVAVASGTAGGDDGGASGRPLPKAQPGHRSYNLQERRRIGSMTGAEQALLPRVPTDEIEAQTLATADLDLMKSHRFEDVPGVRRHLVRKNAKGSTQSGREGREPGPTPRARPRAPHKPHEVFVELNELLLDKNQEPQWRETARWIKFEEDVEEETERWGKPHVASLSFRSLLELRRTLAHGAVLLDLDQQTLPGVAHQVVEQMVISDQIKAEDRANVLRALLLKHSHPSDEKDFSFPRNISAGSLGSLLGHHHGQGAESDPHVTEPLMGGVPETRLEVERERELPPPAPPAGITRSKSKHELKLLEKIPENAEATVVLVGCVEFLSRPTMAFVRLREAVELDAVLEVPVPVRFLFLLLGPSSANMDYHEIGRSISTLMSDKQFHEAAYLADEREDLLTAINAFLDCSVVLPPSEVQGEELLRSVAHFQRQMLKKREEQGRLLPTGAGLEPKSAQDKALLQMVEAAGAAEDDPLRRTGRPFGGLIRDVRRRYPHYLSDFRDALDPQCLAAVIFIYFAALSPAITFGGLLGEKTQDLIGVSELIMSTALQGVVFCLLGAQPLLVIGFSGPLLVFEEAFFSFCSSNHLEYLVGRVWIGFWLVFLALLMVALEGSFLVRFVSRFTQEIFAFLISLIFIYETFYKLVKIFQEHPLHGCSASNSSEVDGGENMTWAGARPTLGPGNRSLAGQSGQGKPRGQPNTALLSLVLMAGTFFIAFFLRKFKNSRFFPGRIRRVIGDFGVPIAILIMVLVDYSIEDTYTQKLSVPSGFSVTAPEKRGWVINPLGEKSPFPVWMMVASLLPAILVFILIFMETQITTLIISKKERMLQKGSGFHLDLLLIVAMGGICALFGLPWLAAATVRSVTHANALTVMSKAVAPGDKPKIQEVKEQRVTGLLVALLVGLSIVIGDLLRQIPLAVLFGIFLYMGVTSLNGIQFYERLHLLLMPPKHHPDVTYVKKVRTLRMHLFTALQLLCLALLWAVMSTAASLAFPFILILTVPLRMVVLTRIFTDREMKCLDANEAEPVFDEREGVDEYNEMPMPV
How it was run: (§1)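 Extracted peptides in 3% acetonitrile/0.1% formic acid ran on a 50 cm C18 column into an Orbitrap Fusion, with MaxQuant identification and spectral counting.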

CA9 = CA9 (human, UniProt Q16790 38-459)
How it was run: as §1

RUSC2 = RUSC2 (human, UniProt Q8N2Y8 1-1516)
Sequence of RUSC2 (Q8N2Y8 whole entry): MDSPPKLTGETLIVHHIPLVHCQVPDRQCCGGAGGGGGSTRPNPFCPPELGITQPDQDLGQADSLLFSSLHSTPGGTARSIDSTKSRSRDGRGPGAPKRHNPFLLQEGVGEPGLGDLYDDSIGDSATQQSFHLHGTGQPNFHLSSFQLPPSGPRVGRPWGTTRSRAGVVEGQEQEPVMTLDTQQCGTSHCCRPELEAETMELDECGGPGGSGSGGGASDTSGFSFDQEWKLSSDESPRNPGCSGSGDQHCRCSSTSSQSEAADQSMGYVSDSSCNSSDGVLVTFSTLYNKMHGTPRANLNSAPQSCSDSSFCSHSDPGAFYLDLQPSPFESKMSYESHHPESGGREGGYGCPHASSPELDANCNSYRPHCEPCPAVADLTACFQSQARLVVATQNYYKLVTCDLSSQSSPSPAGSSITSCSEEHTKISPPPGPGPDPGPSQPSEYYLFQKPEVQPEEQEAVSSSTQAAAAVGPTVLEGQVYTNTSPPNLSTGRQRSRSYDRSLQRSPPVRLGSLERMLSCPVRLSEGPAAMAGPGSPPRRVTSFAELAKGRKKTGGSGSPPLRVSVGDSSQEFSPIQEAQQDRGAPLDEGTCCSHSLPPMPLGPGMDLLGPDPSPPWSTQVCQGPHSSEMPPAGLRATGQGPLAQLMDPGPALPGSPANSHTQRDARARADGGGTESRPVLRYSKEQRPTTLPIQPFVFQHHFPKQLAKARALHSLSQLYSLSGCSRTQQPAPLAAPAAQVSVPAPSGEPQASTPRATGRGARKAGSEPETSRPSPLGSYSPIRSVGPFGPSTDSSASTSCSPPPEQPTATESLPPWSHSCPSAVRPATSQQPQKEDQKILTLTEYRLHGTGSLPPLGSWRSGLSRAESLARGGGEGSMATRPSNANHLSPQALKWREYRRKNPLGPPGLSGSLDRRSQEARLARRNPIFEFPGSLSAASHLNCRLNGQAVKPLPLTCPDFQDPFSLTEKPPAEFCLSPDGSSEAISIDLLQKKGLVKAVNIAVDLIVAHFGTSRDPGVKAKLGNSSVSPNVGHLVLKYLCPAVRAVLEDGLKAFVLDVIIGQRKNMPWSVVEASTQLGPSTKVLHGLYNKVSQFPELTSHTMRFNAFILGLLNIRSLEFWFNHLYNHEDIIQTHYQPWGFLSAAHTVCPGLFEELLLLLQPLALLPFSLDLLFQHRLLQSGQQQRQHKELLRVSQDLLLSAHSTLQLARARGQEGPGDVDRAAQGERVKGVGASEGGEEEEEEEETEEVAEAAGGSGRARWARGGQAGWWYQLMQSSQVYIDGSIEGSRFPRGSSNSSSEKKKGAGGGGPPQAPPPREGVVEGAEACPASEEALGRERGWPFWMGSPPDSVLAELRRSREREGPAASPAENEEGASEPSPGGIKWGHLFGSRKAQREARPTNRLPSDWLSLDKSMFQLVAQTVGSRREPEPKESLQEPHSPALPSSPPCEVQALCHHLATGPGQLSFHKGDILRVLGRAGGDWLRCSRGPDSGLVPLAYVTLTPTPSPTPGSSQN
How it was run: as §1

PPFIBP1 = target: T2, PPFIBP1 (human, UniProt Q86W92 1-1011, limits assumed)
T2 sequence (looked up): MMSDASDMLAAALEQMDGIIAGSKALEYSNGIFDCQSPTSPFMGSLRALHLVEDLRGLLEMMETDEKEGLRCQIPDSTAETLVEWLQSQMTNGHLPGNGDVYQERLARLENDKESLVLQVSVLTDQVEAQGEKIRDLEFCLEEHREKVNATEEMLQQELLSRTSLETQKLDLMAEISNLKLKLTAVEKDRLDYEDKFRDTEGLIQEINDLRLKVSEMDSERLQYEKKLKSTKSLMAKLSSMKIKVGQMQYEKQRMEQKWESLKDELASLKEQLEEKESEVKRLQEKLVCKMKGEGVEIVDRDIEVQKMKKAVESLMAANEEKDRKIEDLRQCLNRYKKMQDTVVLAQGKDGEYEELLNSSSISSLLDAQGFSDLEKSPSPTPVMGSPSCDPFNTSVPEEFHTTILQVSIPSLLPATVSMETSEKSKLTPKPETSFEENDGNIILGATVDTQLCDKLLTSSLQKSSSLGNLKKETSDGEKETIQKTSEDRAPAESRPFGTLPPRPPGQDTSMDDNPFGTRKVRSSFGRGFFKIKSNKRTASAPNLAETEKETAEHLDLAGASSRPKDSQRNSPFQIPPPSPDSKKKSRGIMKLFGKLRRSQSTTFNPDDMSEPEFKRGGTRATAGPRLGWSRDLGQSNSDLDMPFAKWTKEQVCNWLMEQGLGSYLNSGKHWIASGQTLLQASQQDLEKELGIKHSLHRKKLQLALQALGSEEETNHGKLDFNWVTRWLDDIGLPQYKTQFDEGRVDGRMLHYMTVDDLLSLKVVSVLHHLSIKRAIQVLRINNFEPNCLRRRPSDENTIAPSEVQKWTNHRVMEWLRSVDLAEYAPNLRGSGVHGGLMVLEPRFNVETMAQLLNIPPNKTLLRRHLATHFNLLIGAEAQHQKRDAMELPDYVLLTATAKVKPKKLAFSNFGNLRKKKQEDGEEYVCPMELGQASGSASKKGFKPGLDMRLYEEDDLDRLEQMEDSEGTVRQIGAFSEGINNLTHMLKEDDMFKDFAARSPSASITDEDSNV
How it was run: as §1

Measured: binding result

B1: LZTR1 R810W-FLAG (other, human, UniProt Q8N653 1-840, looked up)
chain: MAGPGSTGGQIGAAALAGGARSKVAPSVDFDHSCSDSVEYLTLNFGPFETVHRWRRLPPCDEFVGARRSKHTVVAYKDAIYVFGGDNGKTMLNDLLRFDVKDCSWCRAFTTGTPPAPRYHHSAVVYGSSMFVFGGYTGDIYSNSNLKNKNDLFEYKFATGQWTEWKIEGRLPVARSAHGATVYSDKLWIFAGYDGNARLNDMWTIGLQDRELTCWEEVAQSGEIPPSCCNFPVAVCRDKMFVFSGQSGAKITNNLFQFEFKDKTWTRIPTEHLLRGSPPPPQRRYGHTMVAFDRHLYVFGGAADNTLPNELHCYDVDFQTWEVVQPSSDSEVGGAEVPERACASEEVPTLTYEERVGFKKSRDVFGLDFGTTSAKQPTQPASELPSGRLFHAAAVISDAMYIFGGTVDNNIRSGEMYRFQFSCYPKCTLHEDYGRLWESRQFCDVEFVLGEKEECVQGHVAIVTARSRWLRRKITQARERLAQKLEQEAAPVPREAPGVAAGGARPPLLHVAIREAEARPFEVLMQFLYTDKIKYPRKGHVEDVLLIMDVYKLALSFQLCRLEQLCRQYIEASVDLQNVLVVCESAARLQLSQLKEHCLNFVVKESHFNQVIMMKEFERLSSPLIVEIVRRKQQPPPRTPLDQPVDIGTSLIQDMKAYLEGAGAEFCDITLLLDGHPRPAHKAILAARSSYFEAMFRSFMPEDGQVNISIGEMVPSRQAFESMLRYIYYGEVNMPPEDSLYLFAAPYYYGFYNNRLQAYCKQNLEMNVTVQNVLQILEAADKTQALDMKRHCLHIIVHQFTKVSKLPTLWSLSQQLLLDIIDSLASHISDKQCAELGADI
notes: Stably expressed in U87 cells by lentivirus; also called LZTR1-FLAG-R810W; LZTR1 RW; not shown: FLAG tag
binds: all assays above

Source: patent US20250262210A1 (TRUSTEES OF COLUMBIA UNIVERSITY IN THE CITY OF NEW YORK, published 2025)
